# Source: patent US9187525B2, “Methods of treating ophthalmic diseases using NPR-B agonists” (Shire Orphan Therapies GmbH, dated 2015)
# Numbered stars: 1 amine (or outer) side, 2 acyl side, 3 side chain; on linkers, the order of the positions; unused ones are H or OH. Square brackets hold non-standard residues; d marks the D form. Ends that are not written are not given here. * marks the point of attachment. ctb = (S)-2-amino-3-(tert-butylthio)propanoic acid, CC(C)(C)SC[C@@H](N[*:1])C(=O)[*:2]; Ebe = (R)-2-amino-3-(methylsulfanyl)propanoic acid, CSC[C@H](N[*:1])C(=O)[*:2]; Sni = (S)-nipecotic acid, O=C([C@H]1CCCN([*:1])C1)[*:2]; Phe(3-CF3) = N[C@@H](Cc1cccc(C(F)(F)F)c1)C(=O)O; Phe(4-Cl) = N[C@@H](Cc1ccc(Cl)cc1)C(=O)O; Phe(3-Me) = Cc1cccc(C[C@H](N)C(=O)O)c1; Hyp = O=C(O)[C@@H]1C[C@@H](O)CN1; NMeF = CN[C@@H](Cc1ccccc1)C(=O)O; dAoc(2) = CCCCCC[C@@H](N)C(=O)O; 2Thi = N[C@@H](Cc1cccs1)C(=O)O; 3Thi = N[C@@H](Cc1ccsc1)C(=O)O; Aoc(2) = CCCCCC[C@H](N)C(=O)O; NMeL = CN[C@@H](CC(C)C)C(=O)O; Tle = CC(C)(C)[C@H](N)C(=O)O; hLeu = CC(C)CC[C@H](N)C(=O)O; dNle = CCCC[C@@H](N)C(=O)O; dNva = CCC[C@@H](N)C(=O)O; hSer = N[C@@H](CCO)C(=O)O; Octanoyl = CCCCCCCC(=O)*; dAbu = CC[C@@H](N)C(=O)O; dDap = NC[C@@H](N)C(=O)O; Nva = CCC[C@H](N)C(=O)O; Hexanoyl = CCCCCC(=O)*; asn = not defined here; leu = not defined here; nle = not defined here; Occ = octanoic acid
# T1: natriuretic peptide receptor-B (human)
# T1 chain: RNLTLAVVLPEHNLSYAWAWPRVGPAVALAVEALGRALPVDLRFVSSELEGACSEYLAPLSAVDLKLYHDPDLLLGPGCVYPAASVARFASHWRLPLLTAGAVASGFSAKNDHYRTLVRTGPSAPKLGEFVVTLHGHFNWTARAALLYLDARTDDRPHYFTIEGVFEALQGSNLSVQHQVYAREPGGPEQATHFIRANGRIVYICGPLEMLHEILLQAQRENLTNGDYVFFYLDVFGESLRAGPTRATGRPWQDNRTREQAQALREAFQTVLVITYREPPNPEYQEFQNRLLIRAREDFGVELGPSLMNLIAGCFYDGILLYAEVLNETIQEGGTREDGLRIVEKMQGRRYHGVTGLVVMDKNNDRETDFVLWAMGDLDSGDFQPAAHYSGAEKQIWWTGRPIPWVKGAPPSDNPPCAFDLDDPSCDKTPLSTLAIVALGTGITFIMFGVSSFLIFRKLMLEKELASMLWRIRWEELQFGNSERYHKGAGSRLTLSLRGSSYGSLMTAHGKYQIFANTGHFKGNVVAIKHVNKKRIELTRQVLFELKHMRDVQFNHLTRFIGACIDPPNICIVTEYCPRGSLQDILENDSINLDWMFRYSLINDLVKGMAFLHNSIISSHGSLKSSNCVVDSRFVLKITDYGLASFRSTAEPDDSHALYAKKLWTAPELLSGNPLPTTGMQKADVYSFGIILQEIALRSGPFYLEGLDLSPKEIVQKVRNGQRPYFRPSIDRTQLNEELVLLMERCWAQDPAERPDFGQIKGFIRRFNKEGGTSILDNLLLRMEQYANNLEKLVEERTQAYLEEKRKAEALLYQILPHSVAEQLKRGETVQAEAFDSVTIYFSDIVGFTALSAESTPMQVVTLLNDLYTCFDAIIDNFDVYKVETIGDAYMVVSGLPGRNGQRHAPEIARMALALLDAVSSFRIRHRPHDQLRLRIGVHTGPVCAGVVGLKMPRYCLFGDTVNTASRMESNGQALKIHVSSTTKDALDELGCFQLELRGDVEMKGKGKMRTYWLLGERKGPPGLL
# Molecular target: T1, natriuretic peptide receptor-B
# Test: cell-based or functional assay
row,Binder,"EC50 group, cGMP in GTM-3 cells [µM]"
1,[Occ]AFGLPL[hSer]RI-NH2 (not fully specified (residue 2); printed as Occ-ala-Phe-Gly-Leu-Pro-Leu-Hse-Arg-Ile-NH2) [JAL-0993],≤ 15
2,[Occ]A[3Thi]GLPLDRI-NH2 (not fully specified (residue 2); printed as Occ-ala-Thk-Gly-Leu-Pro-Leu-Asp-Arg-Ile-NH2) [JAL-1003],≤ 15
3,[Occ]A[Phe(4-Cl)]GLPLDRI-NH2 (not fully specified (residue 2); printed as Occ-ala-Pcf-Gly-Leu-Pro-Leu-Asp-Arg-Ile-NH2) [JAL-1002],≤ 15
4,Hexanoyl-A[dA]FGLKLDRISA-NH2 [JAL-0536],≤ 5
5,Octanoyl-[dA]F[dAbu]LPLDRI-NH2 [JAL-1019],≤ 5
6,[Occ]A[Phe(3-Me)]GLPLDRI-NH2 (not fully specified (residue 2); printed as Occ-ala-Mmf-Gly-Leu-Pro-Leu-Asp-Arg-Ile-NH2) [JAL-1006],≤ 15
7,Ac-[dAoc(2)][dA][dA]FGLPLDRI-NH2 [JAL-1034],≤ 5
8,Octanoyl-[dA]F[dNva]L[Hyp]LDRI-NH2 [JAL-1027],≤ 5
9,"[Occ]AFSLPLDRI-NH2 (not fully specified (residues 2, 4); printed as Occ-ala-Phe-ser-Leu-Pro-Leu-Asp-Arg-Ile-NH2) [JAL-1010]",≤ 5
10,Hexanoyl-S[dA]FGLKLDRISS-NH2 [JAL-0535],≤ 15
11,"[Occ]AFTLPLDRI-NH2 (not fully specified (residues 2, 4); printed as Occ-ala-Phe-thr-Leu-Pro-Leu-Asp-Arg-Ile-NH2) [JAL-1011]",≤ 5
12,[Occ]AFG[hLeu]PLDRI-NH2 (not fully specified (residue 2); printed as Occ-ala-Phe-Gly-Hle-Pro-Leu-Asp-Arg-Ile-NH2) [JAL-0998],≤ 15
13,[Occ][Sni]FGL[Hyp][NMeL]DRI-NH2 [JAL-1015],≤ 5
14,Octanoyl-[Sni]F[dNle]L[Hyp]LDRI-NH2 [JAL-1024],≤ 1
15,[Occ]A[Phe(3-CF3)]GLPLDRI-NH2 (not fully specified (residue 2); printed as Occ-ala-Mtf-Gly-Leu-Pro-Leu-Asp-Arg-Ile-NH2) [JAL-1005],≤ 15
16,Octanoyl-[Sni]F[dNle]LPLDRI-NH2 [JAL-1021],≤ 5
17,[Occ]AF[nle]LPLDRI-NH2 (not fully specified (residue 2); printed as Occ-ala-Phe-nle-Leu-Pro-Leu-Asp-Arg-Ile-NH2; reading uncertain) [JAL-1014],≤ 5
18,[Occ]AFGL[Hyp][NMeL]DRI-NH2 (not fully specified (residue 2); printed as Occ-ala-Phe-Gly-Leu-Hyp-Nml-Asp-Arg-Ile-) [JAL-1016],≤ 5
19,"[Occ]AFVLPLDRI-NH2 (not fully specified (residues 2, 4); printed as Occ-ala-Phe-val-Leu-Pro-Leu-Asp-Arg-Ile-NH2) [JAL-1012]",≤ 15

row,Binder,"EC50 group, cGMP in GTM-3 cells [µM]"
1,Octanoyl-[dA]F[dNle]L[Hyp]LDRI-NH2 [JAL-1025],≤ 5
2,Ac-[Aoc(2)][dA][dA]FGLPLDRI-NH2 [JAL-1033],≤ 5
3,Octanoyl-[dA]F[dF]L[Hyp]LDRI-NH2 [JAL-1028],≤ 5
4,Octanoyl-[dA]F[ctb]L[Hyp]LDRI-NH2 [JAL-1029],≤ 5
5,Octanoyl-[dA]F[dH]LPLDRI-NH2 [JAL-1032],≤ 5
6,[Occ]AFGLPLSRI-NH2 (not fully specified (residue 2); printed as Occ-ala-Phe-Gly-Leu-Pro-Leu-Ser-Arg-Ile-NH2) [JAL-0992],≤ 15
7,Octanoyl-[dA]F[dL]L[Hyp]LDRI-NH2 [JAL-1026],≤ 5
8,Octanoyl-[dA]F[dDap]LPLDRI-NH2 [JAL-1020],≤ 5
9,[Occ]AF[asn]LPLDRI-NH2 (not fully specified (residue 2); printed as Occ-ala-Phe-asn-Leu-Pro-Leu-Asp-Arg-Ile-NH2; reading uncertain) [JAL-1017],≤ 5
10,[Occ]AF[leu]LPLDRI-NH2 (not fully specified (residue 2); printed as Occ-ala-Phe-leu-Leu-Pro-Leu-Asp-Arg-Ile-NH2; reading uncertain) [JAL-1013],≤ 5
11,Octanoyl-[dA]F[dR]LPLDRI-NH2 [JAL-1031],≤ 5
12,Hexanoyl-[Ebe][dP]FGLKIDRIS[Ebe]-NH2 [JAL-0534],≤ 15
13,[Occ]AFGIPLDRI-NH2 (not fully specified (residue 2); printed as Occ-ala-Phe-Gly-Ile-Pro-Leu-Asp-Arg-Ile-NH2) [JAL-0995],≤ 15
14,[Occ]AFG[Nva]PLDRI-NH2 (not fully specified (residue 2); printed as Occ-ala-Phe-Gly-Nva-Pro-Leu-Asp-Arg-Ile-NH2) [JAL-0996],≤ 15
15,[Occ]A[2Thi]GLPLDRI-NH2 (not fully specified (residue 2); printed as Occ-ala-Thi-Gly-Leu-Pro-Leu-Asp-Arg-Ile-NH2) [JAL-1000],≤ 15
16,Octanoyl-[dA]F[dM]LPLDRI-NH2 [JAL-1018],≤ 5
17,Octanoyl-[dA]F[dK]LPLDRI-NH2 [JAL-1030],≤ 5
18,Octanoyl-[Sni][NMeF][dNle]LPLDRI-NH2 [JAL-1022],≤ 5
19,[Occ]AFGLPLDR[Tle]-NH2 (not fully specified (residue 2); printed as Occ-ala-Phe-Gly-Leu-Pro-Leu-Asp-Arg-Tbg-) [JAL-0989],≤ 15
